From patent US20160362464A1 (University of California, published 2016)

How the values were obtained:
[1] = target: T1, myc-DAPLE full length F1675A (human, UniProt Q9P219 1-2028); assay: GST pulldown from Cos7 lysates (FIG. 2D)
T1 construct: Expressed in Cos7 cells; used as cell lysate; also called myc-DAPLE FA; DAPLE-FA; not shown: N-terminal myc tag of myc-pcDNA 3.1 (+)
Text: (§1) FIGS. 2A-2N. DAPLE binds and activates Gαi3 in vitro and in vivo via its GBA motif. (A) Prediction of molecular contacts critical for the DAPLE-Gαi interaction. Homology-based model of DAPLE's GBA motif (Red) bound to Gαi3 (green=Switch II, blue=ras-like domain, yellow, all-helical domain) with an enlarged section depicting a putative hydrophobic contact between DAPLE's F1675 and Gαi3's W211/F215. (B) Mutation of residues in the SWII region of Gαi3 disrupts DAPLE binding. Binding of His-DAPLE-CT to GST-Gαi3 WT, W211A or F215A was analyzed exactly as described in FIG. 1D. (C) Mutation of DAPLE F1675 to A abrogates Gαi3 binding. Binding of His-DAPLE-CT WT or F1675A (FA) to GST-Gαi3 was analyzed exactly as described in FIG. 1D. […] Myc-DAPLE WT or F1675A (FA) was expressed in Cos7 and binding to GST-Gαi3 analyzed exactly as described in FIG. 1E. […] Immune complexes were analyzed for DAPLE (myc) and Gαi3 (FLAG) by immunoblotting (IB). was monitored as positive Gαi3-binding control. […] The steady-state GTPase activity of His-Gαi3 alone (black) or in the presence of 2 μM His-DAPLE-CT (blue) was determined by measuring the production of [³²P]Pi at different time points as described in “Methods”. […] GTPγ³⁵S binding to His-Gαi3 at 15 min was determined in the presence of increasing concentrations (0-2 μM) of His-DAPLE-CT WT (blue) or His-DAPLE-CT FA (red).

[2] = target: T2, His-DAPLE-CT (aa 1650-2028) F1675A (human, UniProt Q9P219 1650-2028); assay: GST pulldown, purified proteins (FIG. 2C)
T2 construct: Recombinant, purified from E. coli; also called His-DAPLE-CT FA; DAPLE-CT FA; not shown: His tag and vector residues of pET28b
T2 sequence: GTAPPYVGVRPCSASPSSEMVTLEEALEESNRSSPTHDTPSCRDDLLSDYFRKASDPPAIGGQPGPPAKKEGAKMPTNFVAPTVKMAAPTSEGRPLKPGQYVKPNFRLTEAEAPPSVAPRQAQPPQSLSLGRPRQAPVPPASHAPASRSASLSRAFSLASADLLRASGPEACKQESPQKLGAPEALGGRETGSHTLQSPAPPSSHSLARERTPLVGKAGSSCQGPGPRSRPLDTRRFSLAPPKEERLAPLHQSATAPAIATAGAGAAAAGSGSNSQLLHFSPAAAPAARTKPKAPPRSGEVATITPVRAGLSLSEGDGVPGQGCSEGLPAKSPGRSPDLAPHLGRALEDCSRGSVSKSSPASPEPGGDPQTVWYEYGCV
Text: as §1

- binding result [1]: no binding
- binding result [2]: no binding
B1: GST-Gαi3 preloaded with GDP (inactive) (other, rat, UniProt P08753 1-354, looked up)
chain: MGCTLSAEDKAAVERSKMIDRNLREDGEKAAKEVKLLLLGAGESGKSTIVKQMKIIHEDGYSEDECKQYKVVVYSNTIQSIIAIIRAMGRLKIDFGEAARADDARQLFVLAGSAEEGVMTSELAGVIKRLWRDGGVQACFSRSREYQLNDSASYYLNDLDRISQTNYIPTQQDVLRTRVKTTGIVETHFTFKELYFKMFDVGGQRSERKKWIHCFEGVTAIIFCVALSDYDLVLAEDEEMNRMHESMKLFDSICNNKWFTDTSIILFLNKKDLFEEKIKRSPLTICYPEYTGSNTYEEAAAYIQCQFEDLNRRKDTKEVYTHFTCATDTKNVQFVFDAVTDVIIKNNLKECGLY
notes: Immobilized on glutathione beads; Same polypeptide as m11, other nucleotide state; also called GST-Gαi3 WT; not shown: glutathione S-transferase tag of the pGEX-4T-1 vector
